From paper PMC10805701, “Structure of mycobacterial ergothioneine-biosynthesis C-S lyase EgtE” (The Journal of Biological Chemistry, 2023)
Substitutions are numbered along the chain they refer to. In names and notes the source's numbering stands.

T1: MsEgtE (Mycolicibacterium smegmatis, UniProt A0R5M7)
T1 construct: gene egtE; full-length ORF, pET28a N-terminal hexa-histidine tag, E. coli BL21 (DE3); homodimer (~76 kDa by SEC, predicted 78 kDa)
T1 sequence (A0R5M7 1-371): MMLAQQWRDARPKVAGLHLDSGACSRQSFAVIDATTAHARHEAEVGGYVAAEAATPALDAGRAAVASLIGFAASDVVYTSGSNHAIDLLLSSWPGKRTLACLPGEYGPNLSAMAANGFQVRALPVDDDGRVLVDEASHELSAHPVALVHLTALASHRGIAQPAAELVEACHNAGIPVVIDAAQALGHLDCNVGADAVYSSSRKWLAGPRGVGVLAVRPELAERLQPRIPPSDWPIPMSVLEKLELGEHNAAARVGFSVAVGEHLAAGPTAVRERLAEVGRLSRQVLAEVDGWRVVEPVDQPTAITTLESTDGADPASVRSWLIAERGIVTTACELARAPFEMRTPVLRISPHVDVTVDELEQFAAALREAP

B1: MsEgtE (Mycolicibacterium smegmatis MC2 155) (protein)
chain: T1 sequence (A0R5M7 1-371)
notes: full-length ORF, pET28a N-terminal hexa-histidine tag, E. coli BL21 (DE3); homodimer (~76 kDa by SEC, predicted 78 kDa)
B2: ergothioneine-biosynthesis C-S lyase EgtE from Mycobacterium smegmatis (enzyme, M. smegmatis strain mc2155, UniProt A0R5M7 1-371, looked up)
chain: T1 sequence (A0R5M7 1-371)
modifications: PLP covalently linked to Lys203 via a Schiff base linkage (monomer 1; bond broken in monomer 2 of the MsEgtE-PLP crystal)
notes: EgtE (PLP-dependent C-S lyase), Mycobacterium smegmatis strain mc2155, full-length ORF of msmeg_6246 in pET28a; residues 1-371 described in the structure; Homodimer by crystal structure and size exclusion chromatography; also called MsEgtE; MsEgtE-PLP
B3: MsEgtE (Mycolicibacterium smegmatis MC2 155; Q183A) (protein)
chain: T1 sequence (A0R5M7 1-371) with Q183A
notes: as for B1
B4: MsEgtE (Mycolicibacterium smegmatis MC2 155; Y106F) (protein)
chain: T1 sequence (A0R5M7 1-371) with Y106F
notes: as for B1
B5: MsEgtE (Mycolicibacterium smegmatis MC2 155; R202K) (protein)
chain: T1 sequence (A0R5M7 1-371) with R202K
notes: as for B1

Key:
MsEgtE [1] = target: T1, MsEgtE; experiment: X-ray crystal structure, […] Å; type: binding; conditions: active site of MsEgtE-PLP; from soaked sulfoxide 4 (10 mM)
MsEgtE [2] = target: T2, MsEgtE (Mycolicibacterium smegmatis, UniProt A0R5M7, Y48A); experiment: isothermal titration calorimetry, single injection; type: binding; conditions: 25 °C; 1 mM sulfoxide 4 injected into 20 μM enzyme
T2 construct: gene egtE; full-length ORF, pET28a N-terminal hexa-histidine tag, E. coli BL21 (DE3); homodimer (~76 kDa by SEC, predicted 78 kDa)

purified protein = substrate: C[N+](C)(C)[C@@H](Cc1cnc([S+]([O-])C[C@H](N)C(=O)O)[nH]1)C(=O)[O-]; experiment: purified protein; type: biochemical, Mycolicibacterium smegmatis; conditions: 50 mM KPi pH 8.0, 25 °C, PLP-loaded enzyme, 1 mM DTT, 0.13 mM NADH
[3] = target: the molecule itself; experiment: crystal structure; MsEgtE-PLP binding pyruvate crystal, 2.35 Å, short soak in sulfoxide 4; 0.1 M citric acid pH 6.5, 15% PEG8000, 15% glycol
[4] = target: the molecule itself; experiment: crystal structure; MsEgtE-PLP crystal, 2.8 Å, two molecules per asymmetric unit; sitting drop at 16 °C, 0.1 M HEPES-Na pH 7.5, 1 M NaCl, 0.1 M LiSO4, 10% PEG1000

T2 sequence (A0R5M7 whole entry Y48A): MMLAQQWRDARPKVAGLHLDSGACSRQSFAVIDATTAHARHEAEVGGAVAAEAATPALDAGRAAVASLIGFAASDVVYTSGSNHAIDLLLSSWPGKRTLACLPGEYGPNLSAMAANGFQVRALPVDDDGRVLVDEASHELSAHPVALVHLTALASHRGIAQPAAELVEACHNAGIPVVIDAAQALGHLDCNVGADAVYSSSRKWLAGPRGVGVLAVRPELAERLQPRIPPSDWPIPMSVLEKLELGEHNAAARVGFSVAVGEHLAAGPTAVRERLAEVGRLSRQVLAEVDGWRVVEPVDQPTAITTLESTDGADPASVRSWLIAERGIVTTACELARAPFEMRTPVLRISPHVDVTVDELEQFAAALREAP

Row | Molecule | Km (purified protein) [µM] | kcat (purified protein) [s⁻¹] | other results
1 | CC(=O)C(=O)O [pyruvate] |  |  | X-ray crystal structure, 2.35 Å (MsEgtE [1]): pyruvate binds in the deep crevice of the active center
2 | C[N+](C)(C)[C@@H](Cc1cnc([S+]([O-])C[C@H](N)C(=O)O)[nH]1)C(=O)[O-] (stereo partly drawn) [compound 4, sulfoxide 4] |  |  | isothermal titration calorimetry, single injection (MsEgtE [2]): Y48A mutant still retains a certain level of substrate binding capability
3 | B1 | 516.0 ± 122.1 | 2.08 ± 0.25 | 
4 | B2 |  |  | stoichiometry N [3]: 4; stoichiometry N [4]: 2
5 | B3 | 679.7 ± 235.0 | 0.23 ± 0.04 | 
6 | B4 | 52.1 ± 13.1 | 0.32 ± 0.02 | 
7 | B5 | 58.5 ± 8.7 | 0.03 ± 0.01 | 
